Experiments:
[1] = test system: actin; conditions: Shu et al.; cited from earlier work
[2] = test system: DNA (salmon sperm DNA from Sigma); assay: Effect of K+ and Mg2+ on DNAse activity: decrease in viscosity of a standardised DNA digest (capillary viscosimeter); assay type: biochemical
Method: The viscosity of DNA and DNA/actin solutions was measured with a calibrated capillary viscosimeter (Schott Geräte, Hofheim, Germany) equipped with an automated apparatus (Lauda, Köningshofen, Germany). The capillary viscosimeter was placed in a water bath (20.00° C.±0.05° C.) and the outflow times (t in s) were determined automatically. The viscosity (η) of the solutions is related to t by: [formula] where k and B are known constants. The effect of Mg^2+ and K^+ ions on the activity of DNAse (measured as decrease in viscosity) was determined by changing the Mg^2+ and K^+ concentration in a standardised DNA digest. DNA (salmon sperm DNA from Sigma) was digested (10 μ[…], 2,3 mg/ml DNA, 70 mM NaCl, and 3 mM CaCl2, pH 7.0) in order to determine the change in viscosity of the DNA solution.

[3] = test system: DNA in the presence of rabbit skeletal actin; assay: Influence of actin polymerisation on DNAse activity: decrease in viscosity of DNA/actin solutions; assay type: biochemical
Method: The viscosity of DNA and DNA/actin solutions was measured with a calibrated capillary viscosimeter (Schott Geräte, Hofheim, Germany) equipped with an automated apparatus (Lauda, Köningshofen, Germany). The capillary viscosimeter was placed in a water bath (20.00° C.±0.05° C.) and the outflow times (t in s) were determined automatically. The viscosity (η) of the solutions is related to t by: […] Biol. Chem. (1971) 246: 4866-4871) (6,4 μg/ml […], 1.5 mg DNA/ml and 1.1 mg actin/ml 70 mM NaCl, 3 mM CaCl2, 0.35 mM ATP, 3.2 mM TRIS/HCl, 0.13 mM DTT, and 0.006% NaN3, pH 7,0). K^+ and Mg^2+ were supplied as K2HPO4 and MgCl2 respectively.

[4] = DNA/actin solution 1: K+ 14.0 mM, Mg2+ 0.90 mM
[5] = DNA/actin solution 2: K+ 26.0 mM, Mg2+ 0.90 mM
[6] = DNA/actin solution 3: K+ 26.0 mM, Mg2+ 2.70 mM

Molecule: [Cl-].[Cl-].[Mg+2] [Mg^2+, magnesium chloride]
- concentration giving maximal actin polymerisation [1]: 2 mM

Molecule: O=P([O-])([O-])O.[K+].[K+] [K+, potassium hydrogenophosphate]
- concentration giving maximal actin polymerisation [1]: 200 mM

B1: rhDNAse I: Recombinant human DNAse I, commercially available under the trade name Pulmozyme, also designated dornase alpha (protein, UniProt P24855 23-282, looked up)
Deoxyribonuclease-1: LKIAAFNIQTFGETKMSNATLVSYIVQILSRYDIALVQEVRDSHLTAVGKLLDNLNQDAPDTYHYVVSEPLGRNSYKERYLFVYRPDQVSAVDSYYYDDGCEPCGNDTFNREPAIVRFFSRFTEVREFAIVPLHAAPGDAVAEIDALYDVYLDVQEKWGLEDVMLMGDFNAGCSYVRPSQWSSIRLWTSPTFQWLIPDSADTTATPTHCAYDRIVVAGMLLRGAVVPDSALPFNFQAAYGLSDQLAQAISDHYPVEVMLK
modifications: dornase alfa
notes: Recombinant human DNAse I, commercially available under the trade name Pulmozyme, also designated dornase alpha
- decrease in viscosity at t = 10 minutes ([2]; DNA solution 1: K+ 14.0 mM, Mg2+ 1.65 mM): 97%
- η at t = 10 minutes ([2]; DNA solution 1: K+ 14.0 mM, Mg2+ 1.65 mM, η 31.5 at t = 0): 1.1 mm^2/s
- decrease in viscosity at t = 10 minutes ([2]; DNA solution 2: K+ 26.0 mM, Mg2+ 1.65 mM): 97%
- η at t = 10 minutes ([2]; DNA solution 2: K+ 26.0 mM, Mg2+ 1.65 mM, η 31.5 at t = 0): 1.1 mm^2/s
- decrease in viscosity at t = 10 minutes ([2]; DNA solution 3: K+ 20.0 mM, Mg2+ 0.90 mM): 97%
- η at t = 10 minutes ([2]; DNA solution 3: K+ 20.0 mM, Mg2+ 0.90 mM, η 33.9 at t = 0): 1.1 mm^2/s
- decrease in viscosity at t = 10 minutes ([2]; DNA solution 4: K+ 20.0 mM, Mg2+ 2.70 mM): 97%
- η at t = 10 minutes ([2]; DNA solution 4: K+ 20.0 mM, Mg2+ 2.70 mM, η 33.9 at t = 0): 1.1 mm^2/s
- viscosity η of the DNA solution after digestion ([2]; all tested K+ and Mg2+ concentrations, value is near the viscosity of water): ~1 mm^2/s
- decrease in viscosity at t = 10 min [3, 4]: 32%
- decrease in viscosity at t = 20 min [3, 4]: 34%
- decrease in viscosity at t = 30 min [3, 4]: 40%
- η at t = 20 min [3, 4]: 9.4 mm2/s
- η at t = 30 min [3, 4]: 8.6 mm2/s
- η at t = 10 min ([3]; DNA/actin solution 1: K+ 14.0 mM, Mg2+ 0.90 mM, η 14.3 at t = 0): 9.8 mm2/s
- decrease in viscosity at t = 30 min [3, 5]: 46%
- η at t = 30 min [3, 5]: 7.7 mm2/s
- decrease in viscosity at t = 10 min [3, 6]: 58%
- decrease in viscosity at t = 20 min [3, 6]: 59%
- decrease in viscosity at t = 30 min [3, 6]: 61%
- η at t = 10 min [3, 6]: 6.1 mm2/s
- η at t = 20 min [3, 6]: 5.8 mm2/s
- η at t = 30 min [3, 6]: 5.5 mm2/s
- DNAse activity in DNA/actin solutions ([3]; at high levels of Mg^2+ and K^+): highest
